Patent US20050084492A1, “Assay method to monitor the response of anti-cytokine therapy” (priority 2003, published 2005)

What was measured:
IL-6 = IL-6 (Homo sapiens, UniProt P05231); experiment: Inhibition of IL-6/sIL-6R/IL-1β induced SAA production from A498 cell line, SAA ELISA; assay type: cell-based; settings: A498 cells; IL-6 (100 ng/ml), sIL-6R (200 ng/ml) and IL-1b (1 ng/ml) pre-incubated with serial dilutions of antibody; dose dependent (FIG. 2A & B)
Excerpt: (§1) A-498, a renal carcinoma cell line was purchased from ATCC (Rockville, Md.). Cells were maintained according to ATCC instructions in log phase of cell growth in DMEM/10% heat-inactivated FBS, 1% L-Gut, 1% NEAA and 1% NaPyr. CNTO 328, an anti-human IL-6 antibody developed at Centocor and disclosed in U.S. patent application Ser. No. 10/280,716, hereby incorporated by reference into the present application, was used at several concentrations in the assay. F 105, human anti-gp 120 IgGl, also developed at Centocor, was used as a negative control antibody. Anti-SAA monoclonal antibody (clone REU-86.2, Research Diagnostics, Inc.) was used for SAA immunostaining.
(§2) A498 cells were cultured for 24 hrs in 96-well flat bottom tissue culture plates at a concentration of 6×10^4 cells/100 ul in DMEM complete media at 37 °C./5% CO2. Cells were washed with PBS then starved for 1 hr in 100 ul of serum free DMEM media at room temp. A combination of IL-6 (100 ng/ml), sIL-6R (200 ng /ml) and IL-1b (1 ng/ml) mixture was incubated with serial dilutions of CNTO 328 or F105 control antibody for 30 minutes at room temperature. 100 ul of the mixture was added to the cells and incubated at 37 °C./5% CO2 overnight.
(§3) The cell culture supernatant was assayed immediately for hSAA production using Biosource human SAA kit (Camrillo, Calif.) following manufacturer's instructions.

A498 cells = experiment: Induction of SAA production in A498 renal carcinoma cells by cytokines, SAA ELISA of culture supernatant; assay type: cell-based; settings: human renal tumor A498 cells stimulated overnight with the cytokine(s); SAA in culture supernatant by ELISA (FIG. 2A)
Excerpt: as §1, §2, §3

Chain of IL-6 (P05231 30-212): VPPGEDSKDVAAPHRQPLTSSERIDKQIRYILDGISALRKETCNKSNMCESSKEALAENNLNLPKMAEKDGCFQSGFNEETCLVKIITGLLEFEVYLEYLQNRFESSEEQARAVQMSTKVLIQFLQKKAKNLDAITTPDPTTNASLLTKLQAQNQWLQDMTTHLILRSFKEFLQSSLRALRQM

inhibition of IL-6/sIL-6R/IL-1β induced SAA production (IL-6) | Substance | SAA produced in culture (A498 cells) [ng/mL]
completely inhibited | CNTO 328: an anti-human IL-6 antibody developed at Centocor and disclosed in U.S. patent application Ser. No. 10/280,716 | –
– | IL-1b: cytokine used to stimulate A498 cells | < 100
